Test results: patent US20190361034A1

Tests used:
[1] = biological target: MHC class II molecules on MHC class II-expressing Raji cells (human); assay: cell-based or functional assay
[2] = biological target: MHC class II molecules on MHC class II-expressing Raji cells (human); assay: BLI; immobilised sample, Raji cells in solution; FIG. 23
[3] = biological target: MHC class II molecules on MHC class II-expressing Raji cells (human); assay: BLI; immobilised sample, Raji cells in solution; FIG. 24

Substance	Bioactivity (CCL4 release) [1] [%]	Bioactivity (binding) [2] [%]	Bioactivity (binding) [3] [%]
IMP321, Acid pH 3.6 at RT (1 D = 1 day) (Fc fusion)	29	–	–
IMP321, Acid pH 3.0 at RT (1 D = 1 day) (Fc fusion)	7	–	–
IMP321, Light, 5 D = 5 days (Fc fusion)	87	74	–
IMP321 Oxidation, 1% H2O2 at 37° C. (1 D = 1 day) (Fc fusion)	10	–	–
IMP321, Alkali pH 9.2 at 37° C. (1 D = 1 day) (Fc fusion)	17	–	–
IMP321, Light, 10 D = 10 days (Fc fusion)	73	–	75
IMP321 Oxidation, 0.1% H2O2 at 37° C. (1 D = 1 day) (Fc fusion)	21	–	–
IMP321, Acid pH 3.1 at RT (1 D = 1 day) (Fc fusion)	15	–	–
